This series is described as follows: protein stability index of a GFP-peptide fusion (GPS, HEK-293T) (PSI 1-6); higher = more stable.
Setting [1] is: treatment: DMSO, c terminus: a fixed tail appended.
Where [2] appears, read: treatment: MLN4924 1 uM, 8 h, c terminus: a fixed tail appended.

± gives the standard deviation.
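Note: 24-mer peptide tiles fused after GFP, lentivirally expressed, FACS-sorted into six equal bins by GFP/DsRed ratio, decoded by Illumina sequencing, PSI is the read-weighted mean bin number.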

In the case of QLWSNVTPLTFTKVSEGQADIMIS [MMP1], the protein stability index under setting [1] is 2.58 ± 0.24 and the protein stability index under setting [2] came to 2.66 ± 0.43.
On the same counts, the results for QNCLWTLRNLSDAATKQEGMEGLL [CTNNB1] are 3.23 ± 0.28 and 3.04 ± 0.18.
For QNLQEEKERKLECLPPEPSPDDPE [FAF2], the protein stability index reads like this: under setting [1], 5.44 ± 0.37; under setting [2], 5.46 ± 0.46.
Regarding QNRYLDGMVRAHGVRVSVPCPSTT [BET1L], the protein stability index runs as follows: under setting [1], 3.02 ± 0.37; under setting [2], 3.21 ± 0.44.
The matching figures for QNTHLTRHQRTHTGEKPYQCNICG [ZNF263]: 4.01 ± 0.27 and 4.19 ± 0.32.
Regarding QPMCEEHEEERINIYCLNCEVPTC [TRIM55], the protein stability index turned out to be 4.43 ± 0.2 under setting [1] and 4.31 ± 0.22 under setting [2].
Take QPWMVIEGIRQTEYTLTGLKFDMK [FSD1]: the protein stability index amounted to 2.29 ± 0.35 under setting [1] and 2.52 ± 0.49 under setting [2].
QQDDSDEYDDDDSAASTSFQPQPV [ZNF207] registered a protein stability index under setting [1] of 5.4 ± 0.18 and a protein stability index under setting [2] of 5.37 ± 0.18.
Take QQERNDTNFHGVCMFCNEEFLGNR [ZNF277]: the protein stability index came out at 2.96 ± 0.34 under setting [1] and 2.99 ± 0.6 under setting [2].
In the case of QQYQSQAKQLFRKLNEQSPTRCTL [SEC22B], the protein stability index reads like this: under setting [1], 3.46 ± 0.073; under setting [2], 3.44 ± 0.27.
Take QRAKCKDPQLEIAYRGNCKDVSRC [SMOC2]: the protein stability index reads like this: under setting [1], 3.85 ± 0.21; under setting [2], 4 ± 0.14.
The matching figures for QRIKSQERETEATRGRGGLLRDHI [MOG]: 4.59 ± 0.18 and 4.78 ± 0.11.
The matching figures for QSGCLYRLRALGERHTMDLTVEGF [TMEM120A]: 2.12 ± 0.55 and 2.27 ± 0.2.
With QSHPHLVAEAFRALASAQCPQFGI [SPOPL], the protein stability index by setting is: under setting [1], 2.35 ± 0.4; under setting [2], 2.16 ± 0.023.
Sequence QSLEGDTTKGTSEMSEKRGPTSSN [MLH1] gave a protein stability index under setting [1] of 5.54 ± 0.18 and a protein stability index under setting [2] of 5.43 ± 0.28.
With QTGDLLSTFHTISPSFQLKAAALP [PLAGL1], the protein stability index came to 2.6 ± 0.22 under setting [1] and 2.67 ± 0.22 under setting [2].
On to QTLKAMVQAWPFTCLPLGVLMKGQ [PRAME], for which the protein stability index was determined as 2.65 ± 0.85 under setting [1] and 3.03 ± 0.38 under setting [2].
For the sequence QTQVKIWFQNKRSKFKKLMKQGGA [DLX1], the protein stability index came to 2.36 ± 0.32 under setting [1] and 2.1 ± 0.42 under setting [2].
As for QTWKLFSSHMNIDITDDCICDLAR [PPEF2], the protein stability index runs as follows: under setting [1], 2.25 ± 0.35; under setting [2], 2.06 ± 0.32.
As for QVHDDDLLSSSEEECKDRERPMYG [EMD], the protein stability index stood at 5.49 ± 0.22 under setting [1] and 5.41 ± 0.13 under setting [2].
Turning to QVQSLITNVESQLAEIRSDLERQN [KRT33B], the protein stability index under setting [1] amounted to 3.85 ± 0.22 and the protein stability index under setting [2] was determined as 3.91 ± 0.1.
The matching figures for QVRSAAVQLIWVVSQLYPESIVPI [INTS4]: 3.29 ± 0.32 and 2.9 ± 0.32.
On the same counts, the results for QYALELLTVYAWERGSMKTHFNTA [OAS1] are 3 ± 0.24 and 2.86 ± 0.43.
The matching figures for QYHHSKIRNRGYNLIYRSTRHLKR [TMEM192]: 3.07 ± 0.25 and 2.98 ± 0.091.
For the sequence QYLMASDMAGKIKLWDLRTTKCVR [DCAF4], the protein stability index turned out to be 2.26 ± 0.11 under setting [1] and 2.43 ± 0.26 under setting [2].
For RAASENSQDALRVVSTSGEQMKVY [IKZF1], the protein stability index runs as follows: under setting [1], 4.26 ± 0.57; under setting [2], 4.78 ± 0.29.
RAPEVLLQSTYATPVDMWSVGCIF [CDK4]: the protein stability index reads like this: under setting [1], 2.7 ± 0.28; under setting [2], 2.35 ± 0.34.
In the case of RAPRSPGQVTPRGLRLRLPRRESL [C6orf223], the protein stability index runs as follows: under setting [1], 4.19 ± 0.35; under setting [2], 4.41 ± 0.25.
The matching figures for RARVKEKFSPEAFTEQLYRYVTKL [ALG2]: 2.36 ± 0.48 and 2.05 ± 0.46.
On to RCLHASQWPVCAACPVRKFWSVG [BRF1], for which the protein stability index is, setting by setting: (treatment: DMSO, c terminus: native) 2.4 ± 0.14; (treatment: MLN4924 1 uM, 8 h, c terminus: native) 2.17 ± 0.34.
As for RDSYGGPPRREPLPSRRDVYLSPR [RBMX], the protein stability index under setting [1] is 3.69 ± 0.36 and the protein stability index under setting [2] was found to be 3.97 ± 0.2.
As for RDVYLPAGKWRSYKGELFDKTPVL [MYORG], the protein stability index by setting is: under setting [1], 2.32 ± 0.3; under setting [2], 2.51 ± 0.18.
Sequence REEMKLKECVSILPRKESPSVRSS [TNFSF13B] registered a protein stability index under setting [1] of 4.61 ± 0.14 and a protein stability index under setting [2] of 4.73 ± 0.2.
In turn, RENSSDSPKELKRRNSSSSMSSRL [DLC1] showed a protein stability index under setting [1] of 5.13 ± 0.23 and a protein stability index under setting [2] of 5.05 ± 0.3.
Consider RESRGSTRGKRESESRGSSGRVKR [USP39], for which the protein stability index runs as follows: under setting [1], 5.14 ± 0.32; under setting [2], 5.24 ± 0.33.
As to REVFNEIYPVWTYSYLVLLFPVFL [SLC19A2], the protein stability index amounted to 2.71 ± 0.61 under setting [1] and 2.62 ± 0.21 under setting [2].
For the sequence RFNQVLKNLLHAEFLRVQEERILH [VPS39], the protein stability index by setting is: under setting [1], 2.47 ± 0.81; under setting [2], 2.46 ± 0.38.
The sequence RFPLQEENSVTHHEVKCQGKPLAG [KMT5A] returned a protein stability index under setting [1] of 4.69 ± 0.27 and a protein stability index under setting [2] of 4.55 ± 0.38.
With RFRFGQDQLLLATGLNNGRIKIWD [WSB1], the protein stability index reads like this: under setting [1], 2.25 ± 0.33; under setting [2], 2.5 ± 0.32.
On the same counts, the results for RFYYQALSVAPQIGMPFNQLGTLA [SMG5] are 2.63 ± 0.6 and 2.55 ± 0.61.
Consider RGCSVKIWTAHYDPGHCFAESREL [ALG2], for which the protein stability index was determined as 2.21 ± 0.26 under setting [1] and 2.11 ± 0.52 under setting [2].
The sequence RGGGDPWTNGSGLALCQRYYHRGH [MCOLN1] returned a protein stability index under setting [1] of 3.08 ± 0.23 and a protein stability index under setting [2] of 3.2 ± 0.28.
Consider RGNTYALQTGPLLGRPDSLELQRQ [RSPH3], for which the protein stability index amounted to 3.87 ± 0.15 under setting [1] and 3.9 ± 0.26 under setting [2].
With RGSIQSRYISMSVWTSPRRLVELA [PRAME], the protein stability index by setting is: under setting [1], 2.52 ± 0.24; under setting [2], 2.71 ± 0.3.
Turning to RGTPPRRHSFRKHLYLLRGLPGSG [N4BP2L1], the protein stability index runs as follows: under setting [1], 2.64 ± 0.3; under setting [2], 2.94 ± 0.21.
As to RGYIKPHVDSIKFCGATIAGLSLL [ALKBH7], the protein stability index is, setting by setting: under setting [1], 2.52 ± 0.41; under setting [2], 2.39 ± 0.63.
The matching figures for RHFFTSWASCLQYDFDTQYAFVGD [WDFY1]: 2.37 ± 0.28 and 2.39 ± 0.17.
On the same counts, the results for RICLGKFTFPGMSLDKRQGEGLRI [TPRG1] are 2.12 ± 0.19 and 2.08 ± 0.32.
As to RIHTGERPYMCKECGKAFSQNSSL [ZNF8], the protein stability index is, setting by setting: under setting [1], 2.84 ± 0.39; under setting [2], 3.2 ± 0.74.
As for RILQEKLDQPVSAPPSPRDISMEI [CCDC6], the protein stability index by setting is: under setting [1], 3.68 ± 0.33; under setting [2], 3.87 ± 0.25.
RKDVCKSTHHGCEHICVNNGNSYI [MATN2]: the protein stability index reads like this: under setting [1], 3.01 ± 0.32; under setting [2], 3.07 ± 0.23.
Turning to RKYFADLAMNYKHGDPIPKVEFTE [TPH1], the protein stability index runs as follows: under setting [1], 3.31 ± 0.32; under setting [2], 3.3 ± 0.24.
For the sequence RLRDAGFRVTLWVHPFVNYNSSRF [MYORG], the protein stability index runs as follows: under setting [1], 2.61 ± 0.61; under setting [2], 2.44 ± 0.15.
In turn, RLSKEWEDSKRWSKMDQLAKELTA [CHGA] gave a protein stability index under setting [1] of 3.18 ± 0.34 and a protein stability index under setting [2] of 3.41 ± 0.66.
RLVVEFPATGGAIPSWQIRTVKLI [PKD2L1]: the protein stability index runs as follows: under setting [1], 2.62 ± 0.53; under setting [2], 2.16 ± 0.36.
In the case of RMDKRTLALLVLAHSSDVLENVFS [GOLPH3L], the protein stability index under setting [1] was found to be 2.37 ± 0.53 and the protein stability index under setting [2] is 2.22 ± 0.23.
The matching figures for RMRLFGQRCQKCSWSQYEMPEFSS [RTP4]: 2.42 ± 0.52 and 2.2 ± 0.23.
With RMVPALPPKRMLGADREFIEARRR [SNX8], the protein stability index was determined as 3.96 ± 0.29 under setting [1] and 4.17 ± 0.18 under setting [2].
The matching figures for RMYPFQIHSIALSTFASLIGPFGG [CDS2]: 2.79 ± 0.33 and 2.61 ± 0.5.
On the same counts, the results for RPHEVLLCSDLVKAYQRCVSAAHK [CHCHD6] are 2.64 ± 0.11 and 2.75 ± 0.61.
Regarding RPSSPRPQKASPNGSISSAGNSSR [BTBD10], the protein stability index runs as follows: under setting [1], 4.97 ± 0.21; under setting [2], 4.94 ± 0.3.
As for RPWRAGVLAEGDNASRSLYPDAED [PSD2], the protein stability index by setting is: under setting [1], 5.16 ± 0.2; under setting [2], 5.05 ± 0.16.
The matching figures for RQKGTGKEYAAKFIKKRRLSSSRR [DAPK3]: 4.2 ± 0.24 and 4.5 ± 0.29.
The matching figures for RQKIWNNMPKDHPVSCCLGLLLES [DYNC2LI1]: 2.25 ± 0.23 and 2.34 ± 0.28.
As to RQPVSFHRVKLTNSTLDPHGHLIL [TBX6], the protein stability index under setting [1] stood at 2.27 ± 0.16 and the protein stability index under setting [2] came to 2.27 ± 0.34.
For RQRSSLAKINIVYQELNYRSVEEA [SCNN1D], the protein stability index runs as follows: under setting [1], 3.41 ± 0.24; under setting [2], 3.44 ± 0.22.
In the case of RQVVQDLLKAGAEVNVLNDMRDTP [OSBPL1A], the protein stability index under setting [1] was determined as 4.45 ± 0.21 and the protein stability index under setting [2] is 4.24 ± 0.25.
Consider RRENSTLDVECHEKEKHVNQLQTK [SASS6], for which the protein stability index reads like this: under setting [1], 5.13 ± 0.11; under setting [2], 5.26 ± 0.23.
Consider RRFQQTQYLALPERAELAASLGLT [DLX1], for which the protein stability index reads like this: under setting [1], 2.95 ± 0.21; under setting [2], 3.12 ± 0.099.
On the same counts, the results for RRITYLQNPKDCSKAKKLVCNINK [FUT8] are 2.77 ± 0.28 and 3.05 ± 0.26.
In the case of RRRIEEERLRLEQQKQQIMAALNS [ACBD3], the protein stability index is 4.05 ± 0.14 under setting [1] and 4.58 ± 0.2 under setting [2].
Regarding RRSISSSRSENVLSRLSLMAMPNG [PSD2], the protein stability index reads like this: under setting [1], 3.54 ± 0.17; under setting [2], 3.56 ± 0.19.

The values are drawn from the supplement of paper PMC10567573.
